Results published in article PMC6465249 (Cell Discovery, 2019).

Columns and labels:
Conditions in all cases: both partners purified
[1] = molecular target: Recombinant hemagglutinin of H3N2 A/Aichi/2/1968, ectodomain, monomeric (Influenza A virus A/Aichi/2/1968 (H3N2), strain); assay: SPR
[2] = molecular target: Recombinant hemagglutinin of H10N8 A/Jiangxi-Donghu/346/2013, ectodomain, monomeric (Influenza A virus …, strain); assay: SPR
[3] = molecular target: Recombinant hemagglutinin of H14N6 A/long-tailed duck/Wisconsin/10OS3912/2010, ectodomain, monomeric (Influenza A virus A/long-tailed …, UniProt G5DSS3, strain); assay: SPR
[4] = molecular target: Recombinant hemagglutinin of H4N6 A/duck/Czech/1956, ectodomain, monomeric (Influenza A virus A/duck/Czech/1956 …, strain); assay: SPR
[5] = molecular target: Recombinant hemagglutinin of H7N9 A/Anhui/1/2013, ectodomain (Influenza A virus A/Anhui/1/2013 …, UniProt A0A024E3P0, strain); assay: SPR
[6] = molecular target: Recombinant hemagglutinin of H15N8 A/duck/Australia/341/1983, ectodomain, monomeric (Influenza A virus …, UniProt Q82565, strain); assay: SPR
[7] = molecular target: H14 HA (H14N6 A/long-tailed duck/Wisconsin/10OS3912/2010) (Influenza A virus A/long-tailed …, UniProt G5DSS3); assay: SPR
H3 HA (strain not given) [8] = molecular target: T1, H3 HA (strain not given) (Influenza A virus A/Aichi/2/1968 (H3N2)); assay: SPR
H3 HA (strain not given) [9] = molecular target: T1, H3 HA (strain not given); assay: ELISA

Binder	Kd [1] [nM]	Kd [2] [nM]	Kd [3] [nM]	Kd [4] [nM]	Kd [5] [nM]	Kd [6] [nM]	binding result [7]	binding result (H3 HA (strain not given) [8])	binding result (H3 HA (strain not given) [9])
AF4H1K1 Fab (Fab, V domains shown, also called H1 paired with K1) VH: QVQLVESGGGVVQPGTSLRLSCEASGFTSSAYAMHWVRQAPGKGLEWVAVITFDGGYQYYADSVKGRFTISRDISRNTLHLHMNSLRAEDTAVYYCARDPLTKLLPFDWVSGGYFDYWGQGTLVTVSS VL: not shown	0.79	21	16	9	14				
AF4H1/FI6v3L Fab (Fab, V domains shown, also called AF4H1/FI6L; hybrid MAb with heavy chain from AF4H1K1 and light chain from FI6v3) VH: QVQLVESGGGVVQPGTSLRLSCEASGFTSSAYAMHWVRQAPGKGLEWVAVITFDGGYQYYADSVKGRFTISRDISRNTLHLHMNSLRAEDTAVYYCARDPLTKLLPFDWVSGGYFDYWGQGTLVTVSS VL: not shown	0.0764	37.7	15.9	1.93	11.2	518			
AF4H1K1 Fab (Fab, V domains shown, also called AF4H1K1 Fab fragment) VH: QVQLVESGGGVVQPGTSLRLSCEASGFTSSAYAMHWVRQAPGKGLEWVAVITFDGGYQYYADSVKGRFTISRDISRNTLHLHMNSLRAEDTAVYYCARDPLTKLLPFDWVSGGYFDYWGQGTLVTVSS VL: not shown							binds	binds	
AF4H1/L1CDR3m (antibody, V domains shown, IgG; copies: 2 + 2) VH: QVQLVESGGGVVQPGTSLRLSCEASGFTSSAYAMHWVRQAPGKGLEWVAVITFDGGYQYYADSVKGRFTISRDISRNTLHLHMNSLRAEDTAVYYCARDPLTKLLPFDWVSGGYFDYWGQGTLVTVSS VL: SYELTQPPSVSVSPGQTASITCSGDKLGDKYACWYQQKPGQSPVLVIYQDSKRPSGIPERFSGSNSGNTATLTISGTQAMDEADYYCQQYGSSFTFGTGTKVTVL									no binding
